Legend:
[1] = target: T1, collagen-binding, serum albumin-fused IL-4 variant (CBD-SA-IL-4) (UniProt P04275); test: SPR
[2] = target: T1, collagen-binding, serum albumin-fused …; test: ELISA

koff [1] | Kd [2] | Binder
0.0056 s⁻¹ | – | collagen III (natural protein) QYDSYDVKSGVAVGGLAGYPGPAGPPGPPGPPGTSGHPGSPGSPGYQGPPGEPGQAGPSGPPGPPGAIGPSGPAGKDGESGRPGRPGERGLPGPPGIKGPAGIPGFPGMKGHRGFDGRNGEKGETGAPGLKGENGLPGENGAPGPMGPRGAPGERGRPGLPGAAGARGNDGARGSDGQPGPPGPPGTAGFPGSPGAKGEVGPAGSPGSNGAPGQRGEPGPQGHAGAQGPPGPPGINGSPGGKGEMGPAGIPGAPGLMGARGPPGPAGANGAPGLRGGAGEPGKNGAKGEPGPRGERGEAGIPGVPGAKGEDGKDGSPGEPGANGLPGAAGERGAPGFRGPAGPNGIPGEKGPAGERGAPGPAGPRGAAGEPGRDGVPGGPGMRGMPGSPGGPGSDGKPGPPGSQGESGRPGPPGPSGPRGQPGVMGFPGPKGNDGAPGKNGERGGPGGPGPQGPPGKNGETGPQGPPGPTGPGGDKGDTGPPGPQGLQGLPGTGGPPGENGKPGEPGPKGDAGAPGAPGGKGDAGAPGERGPPGLAGAPGLRGGAGPPGPEGGKGAAGPPGPPGAAGTPGLQGMPGERGGLGSPGPKGDKGEPGGPGADGVPGKDGPRGPTGPIGPPGPAGQPGDKGEGGAPGLPGIAGPRGSPGERGETGPPGPAGFPGAPGQNGEPGGKGERGAPGEKGEGGPPGVAGPPGGSGPAGPPGPQGVKGERGSPGGPGAAGFPGARGLPGPPGSNGNPGPPGPSGSPGKDGPPGPAGNTGAPGSPGVSGPKGDAGQPGEKGSPGAQGPPGAPGPLGIAGITGARGLAGPPGMPGPRGSPGPQGVKGESGKPGANGLSGERGPPGPQGLPGLAGTAGEPGRDGNPGSDGLPGRDGSPGGKGDRGENGSPGAPGAPGHPGPPGPVGPAGKSGDRGESGPAGPAGAPGPAGSRGAPGPQGPRGDKGETGERGAAGIKGHRGFPGNPGAPGSPGPAGQQGAIGSPGPAGPRGPVGPSGPPGKDGTSGHPGPIGPPGPRGNRGERGSEGSPGHPGQPGPPGPPGAPGPCCGGVGAAAIAGIGGEKAGGFAPYYG
– | 0.118 nM | IL-4Rα-Fc (Fc fusion) IKVLGEPTCFSDYIRTSTCEWFLDSAVDCSSQLCLHYRLMFFEFSENLTCIPRNSASTVCVCHMEMNRPVQSDRYQMELWAEHRQLWQGSFSPSGNVKPLAPDNLTLHTNVSDEWLLTWNNLYPSNNLLYKDLISMVNISREDNPAEFIVYNVTYKEPRLSFPINILMSGVYYTARVRVRSQILTGTWSEWSPSITWYNHFQLPLIQR

From PMC10495343 (2023)
